For experiment [1], the target named is T1, P1 peptide, junction peptide of CH4-CεmX (SVNPGLAGGSAQSQRAPDRVL) (human).
T1 construct: Synthetic peptide coated on ELISA plates at 10 ug/mL
T1 peptide: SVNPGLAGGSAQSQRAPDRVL
As to the kind of experiment: ELISA screen of hybridomas on coated P1 peptide. How it is done: Hybridoma cells secreting antibodies with the desired antigen-binding activities were screened as follows. Microtiter plates were coated by incubating with 10 μg/mL of P1 peptide and various other peptides or 1 μg/mL of various recombinant CεmX-fusion proteins in carbonate buffer, 0.1M, pH 9.6, overnight at 4° C. The wells were blocked with 1% BSA in PBS, pH=7.3 for 1 hour and incubated with the antisera or control antibodies at various dilutions for 1 hour at 37° C. After washing, the ligand-bound antibodies were detected by HRP-conjugated goat anti-mouse IgG, Fcγ fragment specific (Jackson ImmunoResearch) at 1:10,000 and incubated for 1 hour at 37° C., followed by incubation with TMB substrate (Clinical Scientific Products). The OD was determined at 450 nm. Positive clones were selected for further characterization.
(In general: In an ELISA, binding on a coated surface is turned into a signal by an enzyme label.)

In experiment [2] the target is T2, P1.15 peptide SVNPGLAGGSAQS (human).
T2 peptide: SVNPGLAGGSAQS
As to the kind of experiment: ELISA on coated synthetic peptide.

The target in experiment [3] is T3, IgE.CH3-CH4 recombinant protein (UniProt P01854 211-426, limits assumed).
T3 construct: domain: CH3-CH4; Recombinant protein coated at 1 ug/mL in ELISA
T3 sequence (P01854 211-426 limits assumed): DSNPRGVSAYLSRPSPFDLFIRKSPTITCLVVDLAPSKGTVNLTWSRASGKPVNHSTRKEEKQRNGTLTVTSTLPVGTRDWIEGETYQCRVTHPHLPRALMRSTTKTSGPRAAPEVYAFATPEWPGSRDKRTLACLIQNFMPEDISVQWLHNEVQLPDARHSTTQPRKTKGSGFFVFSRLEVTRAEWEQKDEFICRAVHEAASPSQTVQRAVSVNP
Kind of experiment: ELISA on coated recombinant protein.

The values below come from patent US20150086558A1 (ACADEMIA SINICA, published 2015).

B1: monoclonal anti-IgE antibody mAb 2H9 (antibody, V domains shown)
VH: QVQMQQPGAELVRPGASVKMSCRTSGYTFTNYNVHWLKQTPGQGLEWIGGMYPGNDDILYNQNFKDRATLTADRSSSTAYIQLRSLTSEDSAVYYCTRSGLQGPWFDYWGQGTLVTVSA
VL: DIQMTQSSSYLSVSLGGRVTISCRASDHINNWLAWYQQKPGNAPRLLISSATSLETGVPSRFSGSGSGKDYSLTIISVQTEDVATYYCQQCWITPFTFGSGTKLEIK
notes: Mouse hybridoma monoclonal antibody from BALB/c mice immunized with HBcAg-P1; It was detected with anti-mouse IgG reagents
As for B1, the binding result in experiment [1] is “binds”; in experiment [2] it was “binds”; in experiment [3], “no binding”.

B2: monoclonal anti-IgE antibody mAb 5A8 (antibody, V domains shown)
VH: QVQLKQSGPGLVAPSQSLSITCTVSGFSLTDYGVNWVRQPPGKGLEWLGMIWGDGSTDYNSTLKSRLSISKDNSKSQVFLKINSLQTDDTARYYCALNWFAYWGQGTLVTAAA
VL: NIVMTQSPAIMSASPGEKVTMTCSASSSVNYMHWYQQKSGTSPKRWIYDTSKLASGVPARFSGSGSGTSYSLTISSMEAEDAATYYCQQWSSNPWTFGGGTKLEIK
notes: Mouse hybridoma monoclonal antibody; It was detected with anti-mouse IgG reagents
As for B2, the binding result in experiment [1] was “binds”.
